Source: patent publication US20190211097A1 (ADVENTIST HEALTH SYSTEM SUNBELT, published 2019)
Values belong to the binder of their own block, whether it stands above or below them.

Target: T1, human CD32a (FcgammaRIIa) on washed human platelets (human, UniProt P12318 34-317)
T1 sequence: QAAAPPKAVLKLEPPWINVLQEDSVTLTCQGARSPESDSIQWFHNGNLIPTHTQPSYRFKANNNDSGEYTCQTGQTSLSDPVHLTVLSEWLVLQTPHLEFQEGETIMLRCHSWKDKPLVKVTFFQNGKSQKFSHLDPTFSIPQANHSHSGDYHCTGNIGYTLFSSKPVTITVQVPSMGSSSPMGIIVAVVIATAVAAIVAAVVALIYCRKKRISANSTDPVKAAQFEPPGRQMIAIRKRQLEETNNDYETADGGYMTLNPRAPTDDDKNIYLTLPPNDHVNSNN
Assay: cell-based or functional assay

- mAb concentration that inhibited 500 nM M90+CD40L IC-induced platelet aggregation: 15 nM
B1: effector-deficient humanized AT-10 IgG1 E269R mAb (antibody)
heavy: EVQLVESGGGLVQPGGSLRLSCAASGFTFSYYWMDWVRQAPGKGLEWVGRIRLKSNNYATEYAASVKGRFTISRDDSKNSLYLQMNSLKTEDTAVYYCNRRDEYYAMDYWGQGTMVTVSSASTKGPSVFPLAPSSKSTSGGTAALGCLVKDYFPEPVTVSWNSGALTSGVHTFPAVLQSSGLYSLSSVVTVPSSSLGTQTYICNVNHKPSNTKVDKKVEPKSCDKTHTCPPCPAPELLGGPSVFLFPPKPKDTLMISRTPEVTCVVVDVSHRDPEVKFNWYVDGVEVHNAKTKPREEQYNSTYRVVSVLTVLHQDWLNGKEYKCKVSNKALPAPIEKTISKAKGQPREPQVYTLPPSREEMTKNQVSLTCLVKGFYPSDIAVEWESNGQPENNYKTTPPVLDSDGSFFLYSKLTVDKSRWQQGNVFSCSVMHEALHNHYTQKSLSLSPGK
light: EIVLTQSPATLSLSPGERATLSCRASESVDNFGISFLAWYQQKPGQAPRLLIYGASNRATGIPARFSGSGSGTDFTLTISSLEPEDFAVYYCQQSKEVPWTFGQGTKVEIKRTVAAPSVFIFPPSDEQLKSGTASVVCLLNNFYPREAKVQWKVDNALQSGNSQESVTEQDSKDSTYSLSSTLTLSKADYEKHKVYACEVTHQGLSSPVTKSFNRGEC

- mAb concentration that inhibited 500 nM M90+CD40L IC-induced platelet aggregation: 3 nM
B2: effector-deficient humanized IV.3.2 IgG1 E269R mAb (antibody)
heavy: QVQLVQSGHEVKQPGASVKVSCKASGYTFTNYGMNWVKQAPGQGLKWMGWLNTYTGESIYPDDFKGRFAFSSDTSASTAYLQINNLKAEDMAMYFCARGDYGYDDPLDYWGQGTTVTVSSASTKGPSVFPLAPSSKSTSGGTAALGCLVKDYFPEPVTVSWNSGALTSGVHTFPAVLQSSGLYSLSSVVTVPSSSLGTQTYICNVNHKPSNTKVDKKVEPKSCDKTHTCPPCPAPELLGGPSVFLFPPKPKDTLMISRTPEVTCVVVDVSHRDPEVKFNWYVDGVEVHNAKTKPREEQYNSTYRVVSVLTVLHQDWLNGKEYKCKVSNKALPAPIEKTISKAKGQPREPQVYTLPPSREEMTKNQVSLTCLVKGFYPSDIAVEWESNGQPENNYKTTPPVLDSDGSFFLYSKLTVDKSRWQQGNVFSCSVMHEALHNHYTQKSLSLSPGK
light: DIVMTQTPLSLPVTPGEPASISCRSSKSLLHTNGNTYLHWYLQKPGQSPQLLIYRMSVLASGVPDRFSGSGSGTDFTLKISRVEAEDVGVYYCMQHLEYPLTFGGGTKVEIKRTVAAPSVFIFPPSDEQLKSGTASVVCLLNNFYPREAKVQWKVDNALQSGNSQESVTEQDSKDSTYSLSSTLTLSKADYEKHKVYACEVTHQGLSSPVTKSFNRGEC

- platelet aggregation by the combination of chimeric AT-10 hIgG1 E269R, chimeric IV.3 hIgG2 N297A and MDE-8 IgG1 E269R, 300 nM each: 300 nM
B3: effector-deficient chimeric IV.3 human IgG2 N297A mAb (antibody)
heavy: QIQLVQSGPELKKPGETVKISCKASGYTFTNYGMNWVKQAPGKGLKWMGWLNTYTGESIYPDDFKGRFAFSSETSASTAYLQINNLKNEDMATYFCARGDYGYDDPLDYWGQGTSVTVSSASTKGPSVFPLAPCSRSTSESTAALGCLVKDYFPEPVTVSWNSGALTSGVHTFPAVLQSSGLYSLSSVVTVPSSNFGTQTYTCNVDHKPSNTKVDKTVERKCCVECPPCPAPPVAGPSVFLFPPKPKDTLMISRTPEVTCVVVDVSHEDPEVQFNWYVDGVEVHNAKTKPREEQFASTFRVVSVLTVVHQDWLNGKEYKCKVSNKGLPAPIEKTISKTKGQPREPQVYTLPPSREEMTKNQVSLTCLVKGFYPSDIAVEWESNGQPENNYKTTPPMLDSDGSFFLYSKLTVDKSRWQQGNVFSCSVMHEALHNHYTQKSLSLSPGK
light: DIVMTQAAPSVPVTPGESVSISCRSSKSLLHTNGNTYLHWFLQRPGQSPQLLIYRMSVLASGVPDRFSGSGSGTAFTLSISRVEAEDVGVFYCMQHLEYPLTFGAGTKLELKRTVAAPSVFIFPPSDEQLKSGTASVVCLLNNFYPREAKVQWKVDNALQSGNSQESVTEQDSKDSTYSLSSTLTLSKADYEKHKVYACEVTHQGLSSPVTKSFNRGEC
